From paper PMC11208175

Substrate: O=P(O)(O)O
Test: cells, lysate or membranes
Details: whole-cell transport in C. crescentus delta-pstS expressing pitA, 0.1-20 µM phosphate, 37 °C, labelled compound (33P tracer)

B1: PitA (Escherichia coli K-12) (protein)
chain: MLHLFAGLDLHTGLLLLLALAFVLFYEAINGFHDTANAVATVIYTRAMRSQLAVVMAAVFNFLGVLLGGLSVAYAIVHMLPTDLLLNMGSSHGLAMVFSMLLAAIIWNLGTWYFGLPASSSHTLIGAIIGIGLTNALMTGTSVVDALNIPKVLSIFGSLIVSPIVGLVFAGGLIFLLRRYWSGTKKRARIHLTPAEREKKDGKKKPPFWTRIALILSAIGVAFSHGANDGQKGIGLVMLVLIGVAPAGFVVNMNATGYEITRTRDAINNVEAYFEQHPALLKQATGADQLVPAPEAGATQPAEFHCHPSNTINALNRLKGMLTTDVESYDKLSLDQRSQMRRIMLCVSDTIDKVVKMPGVSADDQRLLKKLKSDMLSTIEYAPVWIIMAVALALGIGTMIGWRRVATTIGEKIGKKGMTYAQGMSAQMTAAVSIGLASYTGMPVSTTHVLSSSVAGTMVVDGGGLQRKTVTSILMAWVFTLPAAVLLSGGLYWLSLQFL
Km: 1.9 µM
